Data published in US20250049953A1, “TREATMENT AND METHOD FOR INHIBITING LATE NA CURRENT” (THE TRUSTEES OF COLUMBIA UNIVERSITY IN THE CITY OF NEW YORK, priority 2022, published 2025).

Tests used:
freshly dissociated aMVM = assay type: in vitro ADME, mouse
Procedure: The peptide encoding FixR-cpp was chemically synthesized by Genscript (98% purity) to contain the cell permeating viral TAT sequence in the amino-terminus: […] (SEQ ID NO. 2). The amino terminus of the peptide contained a FITC fluorophore to visualize cell uptake. The peptide was resuspended in DMSO. Flow cytometric assays were performed to quantify FixR cellular uptake in both HEK293 cells and freshly dissociated aMVM. HEK293 cells were cultured in 12 well plates and incubated with different concentrations of FixR-cpp for 2 hours and stained for cell death detection using LIVE/DEAD™ Fixable Far Red Dead Cell Stain Kit (ThermoFisher Scientific, L10120). Similarly, non-TG and IQ/AA^tg freshly dissociated aMVM were incubated with various concentrations of FixR-cpp for 2 hours in Tyrode's solution (138 mM NaCl, 4 mM KCl, 1 mM MgCl2, 10 mM HEPES (pH 7.4 using NaOH), 0.2 mM NaHPO4 5 mM D-glucose, 1 mM CaCl2). For cellular uptake measurements, we utilized an LSR II (BD Biosciences) flow cytometer equipped with 405 nm, 488 nm, and 633 nm lasers for excitation and 18 different emission channels. Forward and side scatter signals were detected and used to gate for single and healthy cells. […] Histograms from the Fluorescein 5(6)-isothiocyanate (FITC) and Allophycocyanin (APC) channels for the single-cell population were obtained and analyzed using FlowJo (version X, FlowJo LLC).

NaV1.5 = test: Late Na current inhibition across NaV1.5 channelopathic mutations and channel phosphorylation; assay type: cell-based, human; conditions: various disease linked NaV1.5 channelopathic mutations and channel phosphorylation, in nearly all cases
Procedure: HEK293 cells (ATCC CRL1573) were cultured on glass coverslips in 60-mm dishes and transfected using the Ca^2+-phosphate method as previously described. For electrophysiology experiments, we co-transfected 4-8 μg of cDNA encoding the desired channel variant with 4 μg of YFP, and 1 μg of simian virus 40 T-antigen. For experiments evaluating effect of FHF, we transfected the relevant FHF variant at 1:1 ratio as the α-subunit. For experiments considering competition between FHF1/2 isoforms, we co-transfected FHF1B and FHF2S variants at specified ratios (ranging from 1:1 to 1:10). The culture media was replaced following 4 h of transfection. Electrophysiology recordings were then performed at room temperature 1-2 days following transfection.
Multichannel records were obtained in the on-cell configuration with either HEK293 cells or in aMVM as in our previous study. The pipette contained (in mM): 140 NaCl; 10 HEPES; 0.5 CaCl2; at 300 mOsm, adjusted with tetraethylammonium methanesulfonate; and pH 7.4 adjusted with tetraethylammonium hydroxide. To zero membrane potential, the bath contained (in mM): 132 K^+-glutamate; 5 KCl; 5 NaCl; 3 MgCl; 2 EGTA; 10 glucose; 20HEPES; at 300 mOsm adjusted with glucose; and pH 7.4 adjusted with NaOH. Data were acquired at room temperature using the integrating mode of an Axopatch 200A amplifier (Axon Instruments, Molecular Devices). […]

[1] = target: T1, NaV1.5 S1904L mutant channel (Homo sapiens, UniProt Q14524, S1904L); test: Multichannel recordings of late Na current, NaV1.5 S1904L; assay type: cell-based; conditions: co-expression
T1 construct: expressed in transfected cells; host or cells: HEK293 (ATCC CRL1573)
Procedure: HEK293 cells (ATCC CRL1573) were cultured on glass coverslips in 60-mm dishes and transfected using the Ca^2+-phosphate method as previously described. For electrophysiology experiments, we co-transfected 4-8 μg of cDNA encoding the desired channel variant with 4 μg of YFP, and 1 μg of simian virus 40 T-antigen. […] The culture media was replaced following 4 h of transfection. Electrophysiology recordings were then performed at room temperature 1-2 days following transfection.
Multichannel records were obtained in the on-cell configuration with either HEK293 cells or in aMVM as in our previous study. The pipette contained (in mM): 140 NaCl; 10 HEPES; 0.5 CaCl2; at 300 mOsm, adjusted with tetraethylammonium methanesulfonate; and pH 7.4 adjusted with tetraethylammonium hydroxide. To zero membrane potential, the bath contained (in mM): 132 K^+-glutamate; 5 KCl; 5 NaCl; 3 MgCl; 2 EGTA; 10 glucose; 20HEPES; at 300 mOsm adjusted with glucose; and pH 7.4 adjusted with NaOH. Data were acquired at room temperature using the integrating mode of an Axopatch 200A amplifier (Axon Instruments, Molecular Devices). Patch pipettes (3-10 MΩ) were pulled from ultra-thick-walled borosilicate glass (BF200-116-10; Sutter Instruments) using horizontal puller (P-97, Sutter Instruments), fire polished with a microforge (Narishige), and coated with Sylgard™ brand silicone elastomer (Dow Corning). Elementary currents were low-pass filtered at 2 kHz with a four-pole Bessel filter and digitized at 200 kHz with an ITC-18 unit (Instrutech), controlled by custom MATLAB software (Mathworks). For each pulse, we obtained P/8 leak pulses. Leak subtraction was performed using an automated algorithm which fit the kinetics of the leak current or the capacitive transient with convex optimization with L1 regularization.

Substance | enhancement in fluorescence intensity (freshly dissociated aMVM; 10 μM, 2 hours, flow-cytometer) | uptake into freshly dissociated cardiomyocytes (freshly dissociated aMVM; epifluorescence imaging) | inhibition of INa,L (NaV1.5) | change in INa,L [1]
FixR-cpp: FixR fused to HIV-1 TAT transduction domain, YGRKKRRQRRRAAAIASSLIRQKRQARESNSERVSASKRRSSPSKG (SEQ ID NO: 2) | ~150 fold | robust uptake | – | –
FixR: minimal 39-amino-acid FHF1A amino-terminal effector domain, MAAAIASSLIRQKRQARESNSDRVSASKRRSSPSKDGRS (SEQ ID NO: 4), expressed as peptide | – | – | ~10 fold | inhibits INa,L
